The results in this text go back to patent US9803013B2, “Biological materials and uses thereof” (BioInvent International AB, priority 2005, dated 2017).

The test system of one test is Ramos B lymphoma cells. The test is described as follows: scFv apoptosis assay (cross-linked, 24 h, Annexin V/PI). It counts as cell-based, human. The procedure:
Ramos B lymphoma cells were sequentially incubated with anti-Ramos scFv, anti-His mAb, and anti-mouse polyclonal Ab on ice (with intermittent washing to remove excess unbound antibody), and were incubated in a humidified atmosphere of 5% CO2 at 37° C. for 24 hours. Cells were then harvested and subjected to combined staining with Annexin V-AF488 (AV) and propidium iodide (PI). Cells were scored as viable (AV− PI−, filled circles FIG. 2C), early apoptotic (AV+PI−, open triangles FIG. 2C), or late apoptotic/necrotic (AV+PI+, open diamonds FIG. 2C), based on differential positivity for AV and PI staining (defined by square gates in FIG. 2B). […]
Lipopolysaccharide levels of recombinantly produced scFv fragments were reduced using Detoxigel columns according to manufacturer's instructions (Pierce Biotechnology, Rockford, Ill., USA). Remaining endotoxin levels were quantified by the LAL-amebocyte lysate assay (Cambrex Bioscience, Walkersville, Md., USA). […]
Apoptotic cells were, unless otherwise stated, detected by combined staining with Annexin V Alexa Fluor 488 (AV) and Propidium Iodide (PI) (both from Molecular Probes, Invitrogen) and subsequent flow-cytometric analysis, Cells were defined as viable (AV−/PI−), early apoptotic (AV+/PI−) or late apoptotic/necrotic (AV+/PI+). […]

A further test deals with Raji B lymphoma cells. Described as above. It counts as cell-based, human.

B1: scFv B11: scFv clone isolated by differential biopanning, later converted to B11 IgG1 (protein)
scFv (part 1 of 2): EVQLLESGGGLVQPGGSLRLSCAASGFTFSNAWMSWVRQAPGKGLEWVAFIWYDGSNKYYADSVKGRFTISRDNSKNTLYLQMNSLRAEDTAVYYCARYSGWYFDYWGQGTLVTVSS
scFv (part 2 of 2): QSVLTQPPSASGTPGQRVTISCTGSSSNIGAGYDVHWYQQLPGTAPKLLIYDNNNRPSGVPDRFSGSKSGTSASLAISGLRSEDEADYYCQSYDSSLSAWLFGGGTKLTVLG
modifications: left off: small tags and cut ends
notes: scFv clone isolated by differential biopanning, later converted to B11 IgG1
Regarding B1, the “apoptosis induction by scFv” value in the test on Ramos B lymphoma cells and in the test on Raji B lymphoma cells was “induced significant apoptosis” each time.
